Measurements from patent publication US20250011363A1, “OPTIMIZED SHORTENED PEPTIDE THAT BINDS TO ACETYLCHOLINE RECEPTOR, AND USE THEREOF” (SKINMED CO., LTD., priority 2021, published 2025).

target: acetylcholine receptor (Homo sapiens, UniProt P02708); assay: SPR binding affinity (RU) of optimized 5mer/6mer/7mer peptides, Examples 6-7; details: SPR, Resonance Units; peptides tested at 10 μM; 6mer-1 Bottom sequence (Table 11)
In short: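 Peptides were tested at 10 μM by surface plasmon resonance against the receptor, with binding reported as response units. Library sequences were built from frequent (top) or infrequent (bottom) amino acid combinations in 5mer, 6mer-1 and 6mer-2 series.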

Chain of acetylcholine receptor (P02708 21-457): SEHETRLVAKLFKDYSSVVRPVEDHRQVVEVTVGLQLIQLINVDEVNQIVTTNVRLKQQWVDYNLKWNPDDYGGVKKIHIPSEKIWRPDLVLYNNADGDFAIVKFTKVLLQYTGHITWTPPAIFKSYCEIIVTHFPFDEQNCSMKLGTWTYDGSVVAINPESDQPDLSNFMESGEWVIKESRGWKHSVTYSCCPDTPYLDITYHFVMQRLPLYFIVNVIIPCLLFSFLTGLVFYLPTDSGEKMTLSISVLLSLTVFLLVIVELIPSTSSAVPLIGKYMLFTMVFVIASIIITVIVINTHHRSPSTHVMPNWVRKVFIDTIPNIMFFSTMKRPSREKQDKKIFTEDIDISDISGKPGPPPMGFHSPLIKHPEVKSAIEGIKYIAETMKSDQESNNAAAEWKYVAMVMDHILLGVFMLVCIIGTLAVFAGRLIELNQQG

Row | Substance | Binding affinity
1 | 6mer-1-751 (RRTNFK) | 27 Ru
2 | 6mer-1-752 (KRPTEK) | 16 Ru
3 | 6mer-1-753 (KKDTHK) | 12 Ru
4 | 6mer-1-754 (RKKKMK) | 24 Ru
5 | 6mer-1-755 (RRANMR) | 25 Ru
6 | 6mer-1-756 (RKAKMK) | 33 Ru
7 | 6mer-1-757 (RKDNEK) | 26 Ru
8 | 6mer-1-758 (KKYHHR) | 33 Ru
9 | 6mer-1-759 (RKMTWR) | 23 Ru
10 | 6mer-1-760 (KRMMVR) | 21 Ru
11 | 6mer-1-761 (RKETFR) | 33 Ru
12 | 6mer-1-762 (KKTKAR) | 13 Ru
13 | 6mer-1-763 (RRDCAK) | 12 Ru
14 | 6mer-1-764 (RRNPFK) | 24 Ru
15 | 6mer-1-765 (KRASPK) | 25 Ru
16 | 6mer-1-766 (RKCTIR) | 15 Ru
17 | 6mer-1-767 (KRTPDK) | 18 Ru
18 | 6mer-1-768 (RKFEWK) | 32 Ru
19 | 6mer-1-769 (RKMPVK) | 14 Ru
20 | 6mer-1-770 (RKTNAR) | 29 Ru
21 | 6mer-1-771 (KKMDIK) | 17 Ru
22 | 6mer-1-772 (KRNCAK) | 12 Ru
23 | 6mer-1-773 (KRTEIR) | 29 Ru
24 | 6mer-1-774 (KKEMER) | 21 Ru

Row | Substance | Binding affinity
25 | 6mer-1-775 (KKYPWR) | 12 Ru
26 | 6mer-1-776 (KKTSIK) | 13 Ru
27 | 6mer-1-777 (RRHNHR) | 16 Ru
28 | 6mer-1-778 (RRDDFR) | 28 Ru
29 | 6mer-1-779 (RRPDAR) | 30 Ru
30 | 6mer-1-780 (KRKCWR) | 24 Ru
31 | 6mer-1-781 (RRHWDK) | 16 Ru
32 | 6mer-1-782 (KKNAWK) | 30 Ru
33 | 6mer-1-783 (KKNEFK) | 29 Ru
34 | 6mer-1-784 (KKFTPK) | 33 Ru
35 | 6mer-1-785 (KKTCER) | 19 Ru
36 | 6mer-1-786 (KRIKEK) | 26 Ru
37 | 6mer-1-787 (KKESIK) | 16 Ru
38 | 6mer-1-788 (RKIPKK) | 22 Ru
39 | 6mer-1-789 (KRMMPK) | 19 Ru
40 | 6mer-1-790 (KKPNPK) | 12 Ru
41 | 6mer-1-791 (RKPDDK) | 13 Ru
42 | 6mer-1-792 (KRKDKK) | 30 Ru
43 | 6mer-1-793 (KKTPNR) | 31 Ru
44 | 6mer-1-794 (RKYEPK) | 11 Ru
45 | 6mer-1-795 (KKCHMR) | 12 Ru
46 | 6mer-1-796 (RRHAFK) | 28 Ru
47 | 6mer-1-797 (RRAWNK) | 22 Ru

same assay, conditions: SPR, peptides tested at 10 μM; 6mer-1 Bottom sequence (Table 11)

Row | Substance | Binding affinity
48 | 6mer-1-798 (RRDCFR) | 18 Ru
49 | 6mer-1-799 (RRKKKR) | 30 Ru
50 | 6mer-1-800 (RREHIR) | 15 Ru
51 | 6mer-1-801 (KKCAVK) | 18 Ru
52 | 6mer-1-802 (RKYHGR) | 32 Ru
53 | 6mer-1-803 (RKMKHK) | 31 Ru
54 | 6mer-1-804 (KRDPFR) | 31 Ru
55 | 6mer-1-805 (KRDTMK) | 24 Ru
56 | 6mer-1-806 (RKKTIR) | 12 Ru
57 | 6mer-1-807 (RRDKNR) | 13 Ru
58 | 6mer-1-808 (RRFEKK) | 24 Ru
59 | 6mer-1-809 (KKKSNR) | 12 Ru
60 | 6mer-1-810 (RKCNAR) | 12 Ru
61 | 6mer-1-811 (KRHCHK) | 16 Ru
62 | 6mer-1-812 (RKDHMK) | 26 Ru
63 | 6mer-1-813 (RREDFK) | 15 Ru
64 | 6mer-1-814 (KKCNAK) | 15 Ru
65 | 6mer-1-815 (RRFEMR) | 23 Ru
66 | 6mer-1-816 (RKIDFK) | 14 Ru
67 | 6mer-1-817 (RRIMKR) | 16 Ru
68 | 6mer-1-818 (RKIKAR) | 14 Ru
69 | 6mer-1-819 (KRMHAK) | 17 Ru
70 | 6mer-1-820 (KRNDGK) | 12 Ru

Row | Substance | Binding affinity
71 | 6mer-1-821 (RRTTNR) | 22 Ru
72 | 6mer-1-822 (KREPIK) | 17 Ru
73 | 6mer-1-823 (KRHTGK) | 12 Ru
74 | 6mer-1-824 (KKMNIK) | 12 Ru
75 | 6mer-1-825 (RKEKWK) | 30 Ru
76 | 6mer-1-826 (KKAHMR) | 31 Ru
77 | 6mer-1-827 (RKKKFR) | 30 Ru
78 | 6mer-1-828 (RRPNMK) | 26 Ru
79 | 6mer-1-829 (RRIHKK) | 25 Ru
80 | 6mer-1-830 (KKTTMK) | 33 Ru
81 | 6mer-1-831 (KKNPWK) | 15 Ru
82 | 6mer-1-832 (RKYWGK) | 12 Ru
83 | 6mer-1-833 (RRYKNR) | 19 Ru
84 | 6mer-1-834 (KRNTIR) | 17 Ru
85 | 6mer-1-835 (KRTADK) | 26 Ru
86 | 6mer-1-836 (RRCMIK) | 22 Ru
87 | 6mer-1-837 (KRDHAK) | 19 Ru
88 | 6mer-1-838 (KRNTWK) | 17 Ru
89 | 6mer-1-839 (KRNWAK) | 29 Ru
90 | 6mer-1-840 (RKICNK) | 12 Ru
91 | 6mer-1-841 (KKDAPR) | 30 Ru
92 | 6mer-1-842 (RRFANK) | 11 Ru
93 | 6mer-1-843 (KKKTIK) | 28 Ru

Row | Substance | Binding affinity
94 | 6mer-1-844 (KKPMNR) | 28 Ru
95 | 6mer-1-845 (KKIDKK) | 23 Ru
96 | 6mer-1-846 (RKDAEK) | 28 Ru
97 | 6mer-1-847 (KKYNHK) | 20 Ru
98 | 6mer-1-848 (RKTMFK) | 19 Ru
99 | 6mer-1-849 (KKFNWK) | 21 Ru
100 | 6mer-1-850 (RRNPEK) | 29 Ru
101 | 6mer-1-851 (RRYMEK) | 30 Ru
102 | 6mer-1-852 (KRASVK) | 19 Ru
103 | 6mer-1-853 (KRCNGR) | 30 Ru
104 | 6mer-1-854 (KKEAVR) | 16 Ru
105 | 6mer-1-855 (RKCDVR) | 15 Ru
106 | 6mer-1-856 (KRMWFK) | 30 Ru
107 | 6mer-1-857 (KRPAFK) | 14 Ru
108 | 6mer-1-858 (KKKHKR) | 27 Ru
109 | 6mer-1-859 (RKCMVK) | 27 Ru
110 | 6mer-1-860 (RKHWWR) | 22 Ru
111 | 6mer-1-861 (KRINIR) | 21 Ru
112 | 6mer-1-862 (KKHSEK) | 32 Ru
113 | 6mer-1-863 (RRCTER) | 27 Ru
114 | 6mer-1-864 (RRTWGR) | 32 Ru
115 | 6mer-1-865 (KKMTAR) | 21 Ru
116 | 6mer-1-866 (KRCHFR) | 26 Ru

Row | Substance | Binding affinity
117 | 6mer-1-867 (KRIPMR) | 25 Ru
118 | 6mer-1-868 (KKHHAR) | 14 Ru
119 | 6mer-1-869 (KRKDER) | 22 Ru
120 | 6mer-1-870 (KRMSHR) | 25 Ru
121 | 6mer-1-871 (KREWDR) | 30 Ru
122 | 6mer-1-872 (KRPCHR) | 23 Ru
123 | 6mer-1-873 (KRIWAR) | 23 Ru
124 | 6mer-1-874 (KRANHK) | 18 Ru
125 | 6mer-1-875 (KKTNGR) | 33 Ru
126 | 6mer-1-876 (RKYWAR) | 19 Ru
127 | 6mer-1-877 (KKPEWR) | 19 Ru
128 | 6mer-1-878 (RRKDNR) | 27 Ru
129 | 6mer-1-879 (RRYNNR) | 27 Ru
130 | 6mer-1-880 (KRPMDK) | 21 Ru
131 | 6mer-1-881 (KKHMER) | 20 Ru
132 | 6mer-1-882 (KKPAMR) | 25 Ru
133 | 6mer-1-883 (KKIDDK) | 21 Ru
134 | 6mer-1-884 (KRYTKR) | 26 Ru
135 | 6mer-1-885 (RRKTPR) | 17 Ru
136 | 6mer-1-886 (RKFSNK) | 17 Ru
137 | 6mer-1-887 (KRINHR) | 30 Ru
138 | 6mer-1-888 (KKTANK) | 33 Ru
139 | 6mer-1-889 (KRIMEK) | 25 Ru

Row | Substance | Binding affinity
140 | 6mer-1-890 (RRTSNK) | 18 Ru
141 | 6mer-1-891 (RKMAFR) | 13 Ru
142 | 6mer-1-892 (RKTEKR) | 20 Ru
143 | 6mer-1-893 (RRIPHR) | 22 Ru
144 | 6mer-1-894 (RKCWWR) | 18 Ru
145 | 6mer-1-895 (KKDSKK) | 28 Ru
146 | 6mer-1-896 (KRDWIK) | 11 Ru
147 | 6mer-1-897 (RRPSIK) | 24 Ru
148 | 6mer-1-898 (RKATKR) | 31 Ru
149 | 6mer-1-899 (KRMKWK) | 31 Ru
150 | 6mer-1-900 (RRDTGR) | 24 Ru
151 | 6mer-1-901 (RKPNGR) | 35 Ru
152 | 6mer-1-902 (RRDKMK) | 39 Ru
153 | 6mer-1-903 (KKHKPR) | 37 Ru
154 | 6mer-1-904 (KKDTKR) | 31 Ru
155 | 6mer-1-905 (RRICER) | 36 Ru
156 | 6mer-1-906 (KKINGK) | 30 Ru
157 | 6mer-1-907 (RKPAWR) | 42 Ru
158 | 6mer-1-908 (KKFMVR) | 37 Ru
159 | 6mer-1-909 (RKFCMR) | 33 Ru
160 | 6mer-1-910 (KRPTIR) | 42 Ru
161 | 6mer-1-911 (KRCAAR) | 28 Ru
